Molecular target: T1, recombinant human IL6 (human, UniProt P05231 30-212)
T1 construct: Amine-coupled to a CM5 chip in the Biacore assay; used biotinylated in the Alphascreen assays; also called interleukin-6; biotinylated human IL6
Experiment: SPR, Biacore 3000; IL6 amine-coupled on CM5 chip, periplasmic extract injected
Experimental: Off-rate analysis of Nanobodies binding to IL6 was done by surface plasmon resonance on a Biacore 3000 instrument. Recombinant human IL6 was covalently bound to a CM5 sensor chip via amine coupling at a density of ˜500 RU. Remaining reactive groups were inactivated. Periplasmic extracts prepared from E. coli cells expressing anti-IL6 Nanobodies were diluted 10 or 15-fold and injected for 4 min to allow for binding to IL6 immobilized on the chip. Buffer without Nanobody was sent over the chip for 30 min to allow for spontaneous dissociation of bound Nanobody. The dissociation phase was used to calculate the koff values for each individual Nanobody (table B-1).

Binder | koff [s⁻¹]
PMP13H6 (VHH, Monovalent Nanobody) VHH: QVKLEESGGGLVQAGGSLRLSCASSGRTFSSYVMGWFRQTPGKEREFVSTINWSGSNKYYADSVKGRFTISRDNAKNTVYLQMNSLKPEDTAVYYCAASAGGFLVPRVGQGYDYWGQGTQVTVSS | 0.00189
PMP23H2 (VHH, Monovalent Nanobody) VHH: AVQLVDSGGGLVQPGGSLRLSCAASGSIFSRLAMDWYRQAPGKQRELVASIAVSGTTMLDDSVKGRFTISRDNAENTVYLQMNSLKPEDTAVYYCMAFDGYTGSDYWGRGTQVTVSS | 0.0016
PMP20D2 (VHH, Monovalent Nanobody) VHH: AVQLVESGGGLVQPGGSLRLSCAASGSISRFNIMGWYRQAPGKQRELVADITNRGTTNYADSVKGRFTISRDNTKNTVYLQMNSLKPDDTAVYYCHTYYPTTGFDDWGQGTQVTVSS | 0.000243
PMP7H3 (VHH, Monovalent Nanobody) VHH: DVQLVESGGGLVQPGGSLRLSCAASGFTLDYYGVGWFRQAPGKEREGVSCISSSDGDTYYADSVKGRFTISRDNAKNTVYLQMNSLKPEDTAVYYCATDLSDYGVCSRWPSPYDYWGQGTQVTVSS | 0.00309
PMP9A9 (VHH, Monovalent Nanobody) VHH: QVQLVESGGGLVQPGGSLRLSCAASGFSLDYYGVGWFRQAPGKEREGVSCTSSSDGDTYYADSVKGRFTISRDNAKNTVYLQMNSLKPEDTAVYYCATDLSDYGVCSRWPSPYDYWGQGTQVTVSS | 0.00605
PMP22E3 (VHH, Monovalent Nanobody) VHH: QVQLVESGGGLVQPGGSLRLSCAASGFTLDDSAIGWFRQAPGKEREGVSCISSSDGDTYYDDSVKGRFTISRDNVKNMVYLQMNSLKPEDTAVYFCAIDLSDYGVCSKWPSPYDYWGQGTQVTVSS | 0.00519
PMP6D5 (VHH) VHH: QVQLVESGGGLVQAGGSLRLSCAASGRTFSPYTMGWFRQPPGKVREFVGRINWSGIRNYADSVKGRFTISRDNNNNTVYLQMNRLKPEDTAVYYCAAASQSGSGYDSWGQGTQVTVSS | 0.000511
PMP13A1 (VHH, Monovalent Nanobody) VHH: AVQLVDSGGGLVQAGGSLRLSCAASGRTFSPYTMGWFRQPPGKVREFVGRINWSGIRNYADSVKGRFTISRDNNNNTVYLQMNRLKPEDTAVYYCAAASQSGSGYDSWGQGTQVTVSS | 0.000396
PMP13D8 (VHH, Monovalent Nanobody) VHH: QVKLEESGGGLVQAGSSLRLSCAASGRTSSPYTMGWFRQPPGKVREFVGRINWSGITNYADSVKGRFTISRDNNKNTVYLQMNRLKPEDTAVYYCASASQVGSGYDSWGQGTQVTVSS | 0.000251
PMP20F4 (VHH, Monovalent Nanobody) VHH: QVQLVESGGGLVQAGGSLRLSCAASGRTFSPYTMGWFRQPPGKVREFVGRINWSGIRNYADSVKGRFTISRDNNNNTVYLQMNRLKPEDTAVYYCAAASRSGSGYDSWGQGTQVTVSS | 0.000195
PMP20G9 (VHH, Monovalent Nanobody) VHH: QVQLVESGGGLVQAGGSLRLSCAASGRTFSPYTVGWFRQPPGKVREFVGRINWSGIRNYADSVKGRFTISRDNNNNTVYLQMNRLKPEDTAVYYCAAASQSGSGYDSWGQGTQVTVSS | 0.000318
PMP21A7 (VHH, Monovalent Nanobody) VHH: AVQLVESGGGLVQAGSSLRLSCAASGRTFSPYTMGWFRQPPGKVREFVGRINWSGITNYADSVKGRFTISRDNNKNTVYLQMNRLKPEDTAVYYCAAASRSGSGYDSWGQGTQVTVSS | 0.000526
PMP6G10 (VHH, Monovalent Nanobody) VHH: QVQLVESGGGLAQAGGSLRLSCVVSGRTFSPYTIGWFSQRPGKEREWVATIIGSDRSTDLDGDTYYADSVRGRFTISRNDAKNTVSLQMNSLKPEDSAVYYCALTAKGYVFTDNEYDYWGQGTQVTVSS | 0.000433
NC3 (VHH, Monovalent Nanobody) VHH: EVQLVESGGGLVQPGGSLRLSCAASGNIAAINVMNWYRQAPGTQREFVAAITSGGRKNYADSVKGRFTISRDNAKNTVHLQMNSLKPEDTAVYYCNADAPLASDDDVAPADYWGQGTQVTVSS | 0.00056
NC6 (VHH, Monovalent Nanobody) VHH: EVQLVESGGGLVQAGGSLRLSCAASGPTFSSYAMGWFRQAPGKDREFVAAISSNGGSTRYADSVKGRFTISRDSAKNTAYLQMNSLKLEDTAVYYCAADETTGWVQLADFRSWGQGTQVTVSS | 0.00082
PMP21E12 (VHH, Monovalent Nanobody) VHH: AVQLVESGGGLVQPGGSLRLSCAASGSITSINPMGWYRQAPGKQRELVARIHGSITNYADSVKGRFTISRDIAKNTVYLQMNSLKPEDTAVYYCNARRWGYDYWGQGAQVTVSS | 0.00222
PMP21C12 (VHH, Monovalent Nanobody) VHH: AVQLVESGGGLVQPGGSLRLSCAASGSITGINPMGWYRQAPGKQRELVARIHGSITNYADSVKGRFTISRDIAKNTAYLQMNSLKPEDTAVYYCNARRWGYDYWGQGAQVTVSS | 0.000897
PMP21C2 (VHH, Monovalent Nanobody) VHH: QVQLVESGGGLVQPGGSLRLSCAASEYITSINPMAWYRQAPGKQRDLVARIFGGGSTNYADSVKGRFTISRDIAKNTVSLQMNSLKPEDTAVYYCNARRWGYDYWGQGTQVTVSS | 0.00116
PMP14G4 (VHH, Monovalent Nanobody) VHH: AVQLVDSGGGLVQAGGSLRLSCAASGRTFSSYPMGWFRQGPGKERKFVAGISQSGVGTAYSDSVKGRFTISRENAKNTVYLQMNSLKPEDTAVYYCAARDKTLALRDYAYTTDVGYDDWGQGTQVTVSS | 0.000312
PMP6B7 (VHH, Monovalent Nanobody) VHH: QVQLVESGGGLVQAGGSLRLSCAASGGTFSAFPMGWFRQAPGKERKFVAGISQSGGSTHYSDSVKGRFTISRENAKNTVYLQMNSLKPEDTAVYYCAARGRTLALRNYAYTTEVGYDDWGQGTQVTVSS | 0.000199
PMP6E9 (VHH, Monovalent Nanobody) VHH: EVQLVESGGGLVQAGGSLRLSCAASGRTFSSYPMGWFRQAPGKERKFVAGISQSSSSTAYSDSVKGRFTISRENAKNTVYLQMNSLKPEDTAVYYCAARGRTLALRDYAYTTEVGYDDWGQGTQVTVSS | 0.000631
PMP9F9 (VHH, Monovalent Nanobody) VHH: AVQLVESGGGLVQAGGSLRLSCAASGGTFSSFPMGWFRQAPGEKREFVAGISQSGGSTHYSDSVKGRFTISRENARNTVYLQMNSLKPEDTAVYYCAARGRTLALRNYAYTTEVGYDDWGQGTQVTVSS | 0.00019
PMP12C5 (VHH, Monovalent Nanobody) VHH: DVQLVESGGGLVQAGGSLRLSCAASGGTFTSYPMGWFRQAPGKERKFVAGISQSGGSTAYSDSVKGRFTISRENAKTTVYLQMNSLKPEDTAVYYCAARGRTLFLRGYAYTTEVGYDDWGQGTQVTVSS | 0.000211
PMP12H3 (VHH, Monovalent Nanobody) VHH: AVQLVDSGGGLVQAGGSLRLSCAASGGTFTSYPMGWFRQAPGKERKFVAGISQSGGSTAYSDSVKGRFTISRENAKTTVYLQMNSLKPEDTAVYYCAARGRTLFLRDYAYTTEVGYDDWGQGTQVTVSS | 0.000243
